Assay results published in patent US20090169546A1.

T1: recombinant HMG1 produced in E. coli as calmodulin binding protein (CBP) fusion (human)
T1 chain: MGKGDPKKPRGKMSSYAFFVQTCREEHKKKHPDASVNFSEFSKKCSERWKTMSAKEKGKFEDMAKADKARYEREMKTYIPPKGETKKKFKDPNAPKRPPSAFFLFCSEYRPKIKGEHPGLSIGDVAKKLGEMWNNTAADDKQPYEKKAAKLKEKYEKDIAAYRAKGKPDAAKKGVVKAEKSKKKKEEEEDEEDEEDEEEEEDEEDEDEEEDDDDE

B1: anti-HMG1 antibody G20 (antibody, V domains shown)
VH: EVQLLESGGGLVQPGGSLRLSCAASGFTFSWYDMFWVRQAPGKGLEWVSWISPSGGYTKYADSVKGRFTISRDNSKNTLYLQMNSLRAEDTAMYYCARSGLDYYDSSGYLDAFDIWGQGTMVTVSS
VL: AQDIQMTQSPSSVSASVGDRVTITCRASQDVSIWLAWYQQKPGKAPKLLIFGASRLQSGVPSRFSGSRSGADFTLTIDSVQPEDFASYYCQQADSFPLTFGGGTKVEIK
B2: anti-HMG1 antibody S17 (antibody, V domains shown)
VH: EVQLLESGGGLVQPGGSLRLSCAASGFTFSYYDMHWVRQAPGKGLEWVSRISPSGGYTWYADSVKGRFTISRDNSKNTLYLQMNSLRAEDTAVYYCTRGRYTSGWHEYFDPWGQGTLVTVSS
VL: AQDIQMTQSPSSLSASVGDRVTITCRASQSIGTYLNWYQQKPGTAPKVLIYAASSLQSGVPSRFSGSGSGTDFTLTISSLQPEDFSTYYCQQSYNTPRTFGQGTKLEIK
B3: anti-HMG1 antibody G2 (antibody, V domains shown)
VH: EVQLLESGGGLVQPGGSLRLSCAASGFTFSWYKMQWVRQAPGKGLEWVSGISPSGGSTAYADSVKGRFTISRDNSKNTLYLQMNSLRAEDTAVYYCAKMGLFNTGNSYVDYWGQGTLVTVSS
VL: AQSELTQPPSVSEAPGQRVTISCSGSTSNIGNNAVIWYQQLPGKAPKLLIYYDDLLPSGVSDRFSGSKSGTSGSLAISGLQSEDEADYYCASWDDNLNGPLFGGGTKLTVL

Target: T1, recombinant HMG1 produced in E. coli as …
Assay: BIAcore 3000; mAb amine-coupled to CM5, HMG1 injected in two-fold dilutions; steady-state model
Conditions: remark: other sources report otherwise
For B1, the Kd was 114 nM.
B2 showed a Kd of 331 nM.
B3 gave a Kd of 101 nM.
